Experiments:
Experiment in all cases: oriented sample solid-state NMR
[1] = target: SLN^ΔY29Q30Y31 (sarcolipin with Y29, Q30 and Y31 deleted) (UniProt O00631 1-31, ΔY29Q30Y31)
[2] = target: wild-type sarcolipin (SLN^wt), recombinant (UniProt O00631 1-31)
[3] = target: SLN^ΔI3N4T5 (sarcolipin with I3, N4 and T5 deleted) (UniProt O00631 1-31, ΔI3N4T5)
[4] = target: SLN^ΔT5R6E7 (sarcolipin with T5, R6 and E7 deleted) (UniProt O00631 1-31, ΔT5R6E7)

- binding result [1]: binds
- binding result [2]: binds
- binding result [3]: binds
- binding result [4]: binds
B1: sarcoplasmic reticulum Ca2+-ATPase SERCA1a purified from rabbit skeletal muscle (enzyme)
chain: MEAAHSKSTEECLAYFGVSETTGLTPDQVKRHLEKYGHNELPAEEGKSLWELVIEQFEDLLVRILLLAACISFVLAWFEEGEETITAFVEPFVILLILIANAIVGVWQERNAENAIEALKEYEPEMGKVYRADRKSVQRIKARDIVPGDIVEVAVGDKVPADIRILSIKSTTLRVDQSILTGESVSVIKHTEPVPDPRAVNQDKKNMLFSGTNIAAGKALGIVATTGVSTEIGKIRDQMAATEQDKTPLQQKLDEFGEQLSKVISLICVAVWLINIGHFNDPVHGGSWIRGAIYYFKIAVALAVAAIPEGLPAVITTCLALGTRRMAKKNAIVRSLPSVETLGCTSVICSDKTGTLTTNQMSVCKMFIIDKVDGDFCSLNEFSITGSTYAPEGEVLKNDKPIRSGQFDGLVELATICALCNDSSLDFNETKGVYEKVGEATETALTTLVEKMNVFNTEVRNLSKVERANACNSVIRQLMKKEFTLEFSRDRKSMSVYCSPAKSSRAAVGNKMFVKGAPEGVIDRCNYVRVGTTRVPMTGPVKEKILSVIKEWGTGRDTLRCLALATRDTPPKREEMVLDDSSRFMEYETDLTFVGVVGMLDPPRKEVMGSIQLCRDAGIRVIMITGDNKGTAIAICRRIGIFGENEEVADRAYTGREFDDLPLAEQREACRRACCFARVEPSHKSKIVEYLQSYDEITAMTGDGVNDAPALKKAEIGIAMGSGTAVAKTASEMVLADDNFSTIVAAVEEGRAIYNNMKQFIRYLISSNVGEVVCIFLTAALGLPEALIPVQLLWVNLVTDGLPATALGFNPPDLDIMDRPPRSPKEPLISGWLFFRYMAIGGYVGAATVGAAAWWFMYAEDGPGVTYHQLTHFMQCTEDHPHFEGLDCEIFEAPEPMTMALSVLVTIEMCNALNSLSENQSLMRMPPWVNIWLLGSICLSMSLHFLILYVDPLPMIFKLKALDLTQWLMVLKISLPVIGLDEILKFIARNYLEG
